Legend:
[1] = target: T1, ANT2-HA (human, UniProt P05141 1-298); assay: co-expression of ANT2-HA and FLAG-tagged uORF44 in HEK 293 T cells, immunoprecipitation by one tag, western blot by the other tag
T1 construct: Co-expressed with FLAG-tagged uORF44 in HEK 293 T cells; not shown: HA tag fused to the subtype
T1 sequence (looked up): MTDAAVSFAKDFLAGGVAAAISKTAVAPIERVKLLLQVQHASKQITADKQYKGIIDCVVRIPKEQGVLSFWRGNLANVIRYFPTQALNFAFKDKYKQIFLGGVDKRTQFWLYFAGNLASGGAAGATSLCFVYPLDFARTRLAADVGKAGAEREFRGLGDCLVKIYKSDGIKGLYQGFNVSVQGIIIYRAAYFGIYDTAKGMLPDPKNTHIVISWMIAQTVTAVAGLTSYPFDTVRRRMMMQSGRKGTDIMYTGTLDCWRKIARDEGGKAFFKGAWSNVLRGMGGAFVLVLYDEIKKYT
Method: The expression vector was transfected into HEK 293 T cells cultured in a 10 cm culture dish using Opt-MEM (Life Technologies) and FuGENE-HD (Promega). After 48 hours of transfection, the cells were washed with PBS and dissolved using 1 mL of lysis buffer (20 m Tris-HCl pH 7.5, 150 mM NaCl, 0.5% NP 40, 1×Complete EDTA free (Roche) 10 mM Glycerol 2-phosphate, 1 mM NaVO4) and allowed to stand on ice for 20 minutes. Thereafter, the cells were centrifuged at 4° C., 21,130×g for 30 minutes, and the supernatant was used for immunoprecipitation. 50 μL of anti-[…] antibody beads (Wako, 016-22784) or 50 μL of Monoclonal Anti-HA-Agarose (Sigma, A 2095) was used in the immunoprecipitation. The supernatant was mixed with antibody beads lysate, and slowly mixed at 4° C. for 1 hour. After completion of the antigen-antibody reaction, it was washed 3 times with 1 mL of a lysis buffer, and then the protein was eluted with 50 μL 1×SDS sample buffer. The eluted sample was subjected to electrophoresis by SDS-PAGE followed by western blotting or SYPRO Ruby staining. The western blotting was performed as described in paragraph “(5) Western blotting.” The SYPRO Ruby staining was performed using SYPRO Ruby protein gel stain (Life Technologies, S 12000), in accordance with a product manual. […]

[2] = target: T2, BIP (human, UniProt P11021 19-654); assay: anti-FLAG immunoprecipitation from HEK 293 T lysate, SDS-PAGE; band identified by mass spectrometry (Table 1)
T2 construct: Endogenous protein co-precipitated from HEK 293 T lysate; also called GRP78

[3] = target: T3, DNA-PKcs (human, UniProt P78527 1-4128); assay: as above
T3 construct: Endogenous protein co-precipitated from HEK 293 T lysate and identified by mass spectrometry; also called DNK-PKcs; PRKDC
T3 sequence (P78527 whole entry): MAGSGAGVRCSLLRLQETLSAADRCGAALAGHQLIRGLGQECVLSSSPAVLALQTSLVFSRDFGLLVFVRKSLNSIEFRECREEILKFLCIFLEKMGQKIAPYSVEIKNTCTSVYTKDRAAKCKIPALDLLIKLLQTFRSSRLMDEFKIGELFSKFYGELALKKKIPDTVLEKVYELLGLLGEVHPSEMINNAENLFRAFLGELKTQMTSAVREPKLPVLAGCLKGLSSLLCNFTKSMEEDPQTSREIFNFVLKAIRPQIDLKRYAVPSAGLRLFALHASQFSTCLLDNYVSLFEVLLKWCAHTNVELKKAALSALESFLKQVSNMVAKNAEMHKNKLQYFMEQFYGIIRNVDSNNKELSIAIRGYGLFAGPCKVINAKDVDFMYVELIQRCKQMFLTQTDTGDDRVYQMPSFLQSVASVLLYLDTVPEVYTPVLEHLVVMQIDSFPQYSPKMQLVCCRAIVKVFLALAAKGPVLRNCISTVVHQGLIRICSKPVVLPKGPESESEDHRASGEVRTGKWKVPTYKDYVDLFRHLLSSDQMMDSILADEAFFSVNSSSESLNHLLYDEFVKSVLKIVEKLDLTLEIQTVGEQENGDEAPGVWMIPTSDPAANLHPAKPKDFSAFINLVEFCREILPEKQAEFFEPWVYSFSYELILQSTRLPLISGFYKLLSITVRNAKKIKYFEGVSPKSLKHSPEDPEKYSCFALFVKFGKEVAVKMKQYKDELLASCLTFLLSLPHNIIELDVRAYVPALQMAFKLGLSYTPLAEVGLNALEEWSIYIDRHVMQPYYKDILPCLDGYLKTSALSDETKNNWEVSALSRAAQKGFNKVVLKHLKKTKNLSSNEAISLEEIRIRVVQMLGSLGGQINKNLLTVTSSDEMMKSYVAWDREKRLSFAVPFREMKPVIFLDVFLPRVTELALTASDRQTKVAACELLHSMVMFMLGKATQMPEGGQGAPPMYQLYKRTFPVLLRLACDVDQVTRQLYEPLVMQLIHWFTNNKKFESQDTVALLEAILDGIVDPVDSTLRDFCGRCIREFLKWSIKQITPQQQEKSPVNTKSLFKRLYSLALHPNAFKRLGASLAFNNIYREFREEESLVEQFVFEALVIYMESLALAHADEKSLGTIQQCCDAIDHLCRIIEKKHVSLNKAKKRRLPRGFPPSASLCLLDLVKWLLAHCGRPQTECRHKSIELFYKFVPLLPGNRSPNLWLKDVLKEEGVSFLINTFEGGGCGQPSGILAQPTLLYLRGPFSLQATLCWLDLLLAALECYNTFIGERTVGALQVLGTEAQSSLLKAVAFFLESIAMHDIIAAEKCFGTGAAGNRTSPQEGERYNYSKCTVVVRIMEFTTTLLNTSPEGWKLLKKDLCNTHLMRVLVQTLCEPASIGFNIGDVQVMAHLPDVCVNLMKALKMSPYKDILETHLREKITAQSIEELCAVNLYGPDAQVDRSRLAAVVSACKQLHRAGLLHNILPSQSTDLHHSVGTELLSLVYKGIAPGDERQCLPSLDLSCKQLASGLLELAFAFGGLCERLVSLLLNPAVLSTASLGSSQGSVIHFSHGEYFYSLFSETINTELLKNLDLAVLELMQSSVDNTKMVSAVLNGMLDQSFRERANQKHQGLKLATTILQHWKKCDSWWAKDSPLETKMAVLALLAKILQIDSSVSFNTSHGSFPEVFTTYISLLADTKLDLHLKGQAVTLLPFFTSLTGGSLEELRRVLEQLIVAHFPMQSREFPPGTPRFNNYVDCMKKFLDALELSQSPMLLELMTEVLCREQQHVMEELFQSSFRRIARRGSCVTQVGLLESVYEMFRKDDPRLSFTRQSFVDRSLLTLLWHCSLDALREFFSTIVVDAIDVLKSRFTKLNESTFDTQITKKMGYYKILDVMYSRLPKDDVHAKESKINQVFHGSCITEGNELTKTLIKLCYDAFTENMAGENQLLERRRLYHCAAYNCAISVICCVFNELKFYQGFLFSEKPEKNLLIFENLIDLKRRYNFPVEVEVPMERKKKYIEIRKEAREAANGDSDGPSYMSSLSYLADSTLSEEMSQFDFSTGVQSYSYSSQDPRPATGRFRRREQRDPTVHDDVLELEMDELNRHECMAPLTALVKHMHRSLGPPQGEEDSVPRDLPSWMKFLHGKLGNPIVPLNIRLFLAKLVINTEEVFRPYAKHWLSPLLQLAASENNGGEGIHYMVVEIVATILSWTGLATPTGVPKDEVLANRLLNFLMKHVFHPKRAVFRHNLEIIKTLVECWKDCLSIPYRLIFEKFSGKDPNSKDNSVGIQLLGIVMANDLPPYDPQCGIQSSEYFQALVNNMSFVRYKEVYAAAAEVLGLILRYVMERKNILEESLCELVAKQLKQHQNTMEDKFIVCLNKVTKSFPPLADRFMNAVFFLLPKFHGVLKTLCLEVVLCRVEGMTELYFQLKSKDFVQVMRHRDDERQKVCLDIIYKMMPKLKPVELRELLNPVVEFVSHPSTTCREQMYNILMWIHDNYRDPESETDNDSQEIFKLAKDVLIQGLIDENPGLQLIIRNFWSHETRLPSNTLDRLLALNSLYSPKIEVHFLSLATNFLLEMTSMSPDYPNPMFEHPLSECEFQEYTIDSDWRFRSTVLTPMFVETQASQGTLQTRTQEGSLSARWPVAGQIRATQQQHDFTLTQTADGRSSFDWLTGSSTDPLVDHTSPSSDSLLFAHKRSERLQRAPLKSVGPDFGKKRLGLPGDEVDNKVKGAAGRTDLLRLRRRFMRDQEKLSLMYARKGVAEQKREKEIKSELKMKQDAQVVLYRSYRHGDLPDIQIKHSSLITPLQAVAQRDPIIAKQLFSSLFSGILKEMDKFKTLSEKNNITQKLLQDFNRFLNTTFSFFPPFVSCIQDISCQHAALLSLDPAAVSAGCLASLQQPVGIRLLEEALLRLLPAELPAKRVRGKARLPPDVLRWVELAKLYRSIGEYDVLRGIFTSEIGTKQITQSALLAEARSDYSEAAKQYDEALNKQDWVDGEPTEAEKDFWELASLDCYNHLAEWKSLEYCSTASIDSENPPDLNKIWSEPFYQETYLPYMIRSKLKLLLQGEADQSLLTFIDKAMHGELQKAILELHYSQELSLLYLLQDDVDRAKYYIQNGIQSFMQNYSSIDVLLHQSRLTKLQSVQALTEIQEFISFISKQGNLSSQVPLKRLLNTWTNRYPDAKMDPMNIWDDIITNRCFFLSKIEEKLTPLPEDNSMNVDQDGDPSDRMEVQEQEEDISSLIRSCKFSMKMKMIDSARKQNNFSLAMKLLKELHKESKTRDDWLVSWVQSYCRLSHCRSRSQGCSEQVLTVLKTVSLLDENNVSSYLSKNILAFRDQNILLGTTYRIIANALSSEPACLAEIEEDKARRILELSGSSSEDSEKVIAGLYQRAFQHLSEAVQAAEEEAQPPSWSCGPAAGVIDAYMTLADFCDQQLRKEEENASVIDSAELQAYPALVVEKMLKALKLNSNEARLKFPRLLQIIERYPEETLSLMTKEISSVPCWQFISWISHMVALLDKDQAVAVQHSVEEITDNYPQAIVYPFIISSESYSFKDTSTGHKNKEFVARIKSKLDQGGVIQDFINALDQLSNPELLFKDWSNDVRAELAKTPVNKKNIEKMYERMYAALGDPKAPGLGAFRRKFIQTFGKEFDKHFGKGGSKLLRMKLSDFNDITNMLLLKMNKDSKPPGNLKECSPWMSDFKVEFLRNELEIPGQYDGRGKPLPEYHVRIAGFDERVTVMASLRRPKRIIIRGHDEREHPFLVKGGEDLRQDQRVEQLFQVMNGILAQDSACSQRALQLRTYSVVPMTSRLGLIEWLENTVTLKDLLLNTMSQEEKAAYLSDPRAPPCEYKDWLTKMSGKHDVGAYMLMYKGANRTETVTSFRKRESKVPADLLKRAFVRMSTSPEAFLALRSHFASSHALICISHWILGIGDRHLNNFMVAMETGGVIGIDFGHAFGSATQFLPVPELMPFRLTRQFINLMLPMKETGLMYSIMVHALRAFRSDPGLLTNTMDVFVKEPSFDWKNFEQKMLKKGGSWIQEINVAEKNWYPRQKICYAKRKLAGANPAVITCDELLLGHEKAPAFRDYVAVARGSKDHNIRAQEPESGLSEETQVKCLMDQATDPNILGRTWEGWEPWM

T2 sequence (P11021 19-654 limits assumed): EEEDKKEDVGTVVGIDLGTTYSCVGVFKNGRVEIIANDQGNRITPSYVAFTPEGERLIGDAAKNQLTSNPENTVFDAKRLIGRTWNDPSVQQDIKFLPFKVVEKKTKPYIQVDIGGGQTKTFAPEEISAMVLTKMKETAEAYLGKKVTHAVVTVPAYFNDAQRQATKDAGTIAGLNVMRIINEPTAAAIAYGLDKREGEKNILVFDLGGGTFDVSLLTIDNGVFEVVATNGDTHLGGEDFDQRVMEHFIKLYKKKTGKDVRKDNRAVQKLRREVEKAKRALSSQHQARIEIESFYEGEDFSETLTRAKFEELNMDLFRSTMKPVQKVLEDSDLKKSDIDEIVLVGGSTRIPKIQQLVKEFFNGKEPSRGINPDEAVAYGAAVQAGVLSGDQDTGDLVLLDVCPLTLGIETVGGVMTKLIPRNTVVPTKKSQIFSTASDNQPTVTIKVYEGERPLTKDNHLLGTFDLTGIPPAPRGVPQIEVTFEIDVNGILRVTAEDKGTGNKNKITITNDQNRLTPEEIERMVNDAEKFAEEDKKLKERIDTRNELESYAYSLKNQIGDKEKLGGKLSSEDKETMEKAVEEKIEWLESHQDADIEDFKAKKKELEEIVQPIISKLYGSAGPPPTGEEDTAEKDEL

binding result [1]: binds
binding result [2]: binds
binding result [3]: binds
B1: FLAG-tagged uORF44p (protein derived from uORF44, an upstream ORF in the mRNA of ARHGEF9) (other, not shown: small tags and cut ends)
chain: MDSLTEQRLTSPNLPAPHLEHYSVLHCTMTLDVQTVVVFAVIVVLLLVNVILMFFLGTR
notes: Expressed from a pcDNA3 FLAG vector in HEK 293 T cells; also called uORF44 protein; mental activity-related protein

Source: patent publication US20190049459A1 (TOKYO INSTITUTE OF TECHNOLOGY, published 2019)
